Assay results as given in the supplement of paper PMC5998384.

Assays:
HeLa Kyoto [1] = experiment: solubility in G1/S (NP-40 vs SDS abundance) (log2 ratio); higher = more soluble; conditions: cell cycle stage: G1/S
HeLa Kyoto [2] = experiment: melting temperature (median over replicates), in situ; higher = more thermally stable
HeLa Kyoto [3] = experiment: solubility change mitosis vs G1/S (difference of NP-40 vs SDS log2 ratios) (log2 ratio difference); higher = more soluble in mitosis
HeLa Kyoto [4] = experiment: thermal stability score vs G1/S (z-score of summed log2 fold changes over temperatures); higher = more thermally stable than in G1/S
[5] = cell cycle stage: early G1 (4.5 h after nocodazole release)
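Wherever melting temperature (median over replicates), in situ is given: HeLa Kyoto cells synchronized by double thymidine or nocodazole block, proteins quantified by TMT10plex mass spectrometry, three independent biological replicates.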
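Wherever solubility change mitosis vs G1/S (difference of NP-40 vs SDS log2 ratios) is given: synchronized HeLa Kyoto cells (double thymidine block for G1/S, nocodazole release for mitosis), protein amounts in NP-40 versus SDS lysates quantified by mass spectrometry, three biological replicates.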
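Wherever solubility in G1/S (NP-40 vs SDS abundance) is given: HeLa Kyoto cells arrested at G1/S by double thymidine block, proteins quantified by TMT10plex mass spectrometry in mild NP-40 versus SDS extracts, three biological replicates.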
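Wherever thermal stability score vs G1/S (z-score of summed log2 fold changes over temperatures) is given: synchronized HeLa Kyoto cells, proteins quantified by TMT10plex mass spectrometry, three biological replicates, mitosis taken 0.5 h after nocodazole release, G1/S directly after double thymidine block.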

NCOA3, sequence (chain, as listed by the source): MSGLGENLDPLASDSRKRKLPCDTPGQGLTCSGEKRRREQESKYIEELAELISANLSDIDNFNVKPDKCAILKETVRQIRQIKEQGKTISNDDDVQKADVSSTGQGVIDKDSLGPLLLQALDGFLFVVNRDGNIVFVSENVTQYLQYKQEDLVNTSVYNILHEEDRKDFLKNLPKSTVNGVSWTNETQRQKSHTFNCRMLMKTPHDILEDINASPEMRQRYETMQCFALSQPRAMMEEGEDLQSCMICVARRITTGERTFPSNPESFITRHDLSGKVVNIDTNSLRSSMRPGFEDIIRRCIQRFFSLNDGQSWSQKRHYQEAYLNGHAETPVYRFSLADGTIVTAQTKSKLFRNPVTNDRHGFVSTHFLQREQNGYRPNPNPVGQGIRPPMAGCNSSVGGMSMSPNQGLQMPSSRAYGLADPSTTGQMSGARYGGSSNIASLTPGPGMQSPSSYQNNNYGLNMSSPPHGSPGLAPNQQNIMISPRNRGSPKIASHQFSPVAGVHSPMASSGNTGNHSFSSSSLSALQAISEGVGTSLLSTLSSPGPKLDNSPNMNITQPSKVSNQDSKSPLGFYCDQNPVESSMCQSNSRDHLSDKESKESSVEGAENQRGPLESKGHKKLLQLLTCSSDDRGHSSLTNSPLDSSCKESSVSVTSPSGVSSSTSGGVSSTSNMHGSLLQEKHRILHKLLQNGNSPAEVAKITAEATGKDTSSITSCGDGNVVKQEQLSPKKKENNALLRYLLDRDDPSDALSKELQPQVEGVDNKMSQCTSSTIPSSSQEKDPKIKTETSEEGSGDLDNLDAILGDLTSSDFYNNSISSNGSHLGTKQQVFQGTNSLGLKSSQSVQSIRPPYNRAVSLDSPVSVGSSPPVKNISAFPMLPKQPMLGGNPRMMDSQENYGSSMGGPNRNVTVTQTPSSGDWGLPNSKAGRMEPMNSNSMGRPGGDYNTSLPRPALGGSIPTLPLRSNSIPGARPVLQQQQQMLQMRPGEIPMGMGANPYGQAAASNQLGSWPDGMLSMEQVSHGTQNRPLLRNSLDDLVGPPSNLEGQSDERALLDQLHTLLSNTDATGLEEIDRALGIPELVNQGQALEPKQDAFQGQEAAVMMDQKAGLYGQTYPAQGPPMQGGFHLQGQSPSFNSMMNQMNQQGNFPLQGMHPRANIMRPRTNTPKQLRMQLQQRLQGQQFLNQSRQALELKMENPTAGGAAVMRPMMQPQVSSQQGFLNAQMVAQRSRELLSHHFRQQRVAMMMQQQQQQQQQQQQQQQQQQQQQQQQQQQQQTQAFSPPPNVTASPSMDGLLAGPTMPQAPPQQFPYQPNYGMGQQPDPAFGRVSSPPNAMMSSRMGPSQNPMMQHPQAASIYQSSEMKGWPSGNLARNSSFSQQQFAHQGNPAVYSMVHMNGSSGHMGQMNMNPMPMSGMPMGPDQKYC

| Substance | solubility in G1/S (log2) (HeLa Kyoto [1]) | melting temperature (HeLa Kyoto [2]; cell cycle stage: G1/S) | melting temperature (HeLa Kyoto [2]; cell cycle stage: mitosis) | solubility change mitosis (log2) (HeLa Kyoto [3]) | thermal stability score (HeLa Kyoto [4]; [5]) | thermal stability score (HeLa Kyoto [4]; cell cycle stage: mitosis) |
| --- | --- | --- | --- | --- | --- | --- |
| PLXND1 | 0.0061 | 49.5 °C | 48.7 °C | -0.0638 | 0.367 | 0.672 |
| NCOA3 | 0.355 | 51.2 °C | 49.8 °C | -0.0688 | 0.836 | 1.22 |
| MAFWAGGSPSVVDYFPSEDFYRCGYCKNESGSRSNGMWAHSMTVQDYQDLIDRGWRRSGKYVYKPVMNQTCCPQYTIRCRPLQFQPSKSHKKVLKKMLKFLAKGEVPKGSCEDEPMDSTMDDAVAGDFALINKLDIQCDLKTLSDDIKESLESEGKNSKKEEPQELLQSQDFVGEKLGSGEPSHSVKVHTVPKPGKGADLSKPPCRKAKEIRKERKRLKLMQQNPAGELEGFQAQGHPPSLFPPKAKSNQPKSLEDLIFESLPENASHKLEVRVVRSSPPSSQFKATLLESYQVYKRYQMVIHKNPPDTPTESQFTRFLCSSPLEAETPPNGPDCGYGSFHQQYWLDGKIIAVGVIDILPNCVSSVYLYYDPDYSFLSLGVYSALREIAFTRQLHEKTSQLSYYYMGFYIHSCPKMKYKGQYRPSDLLCPETYVWVPIEQCLPSLENSKYCRFNQDPEAVDEDRSTEPDRLQVFHKRAIMPYGVYKKQQKDPSEEAAVLQYASLVGQKCSERMLLFRN [ATE1] | 0.211 | 51 °C | 50.8 °C | -0.352 | 0.0147 | 0.195 |
| MASSEQAEQPSQPSSTPGSENVLPREPLIATAVKFLQNSRVRQSPLATRRAFLKKKGLTDEEIDMAFQQSGTAADEPSSLGPATQVVPVQPPHLISQPYSPAGSRWRDYGALAIIMAGIAFGFHQLYKKYLLPLILGGREDRKQLERMEAGLSELSGSVAQTVTQLQTTLASVQELLIQQQQKIQELAHELAAAKATTSTNWILESQNINELKSEINSLKGLLLNRRQFPPSPSAPKIPSWQIPVKSPSPSSPAAVNHHSSSDISPVSNESTSSSPGKEGHSPEGSTVTYHLLGPQEEGEGVVDVKGQVRMEVQGEEEKREDKEDEEDEEDDDVSHVDEEDCLGVQREDRRGGDGQINEQVEKLRRPEGASNESERD [PEX14] | 0.332 | 53.2 °C | 53.6 °C | 0.164 | 0.978 | 1.36 |
| MDQEPVGGVERGEAVAASGAAAAAAFGESAGQMSNERGFENVELGVIGKKKKVPRRVIHFVSGETMEEYSTDEDEVDGLEKKDVLPTVDPTKLTWGPYLWFYMLRAATSTLSVCDFLGEKIASVLGISTPKYQYAIDEYYRMKKEEEEEEEENRMSEEAEKQYQQNKLQTDSIVQTDQPETVISSSFVNVNFEMEGDSEVIMESKQNPVSVPP [FAM177A1] | 0.0523 | 54.5 °C | 56.5 °C | -0.0492 | 0.512 | -0.398 |
| MQRALPGARQHLGAILASASVVVKALCAAVLFLYLLSFAVDTGCLAVTPGYLFPPNFWIWTLATHGLMEQHVWDVAISLTTVVVAGRLLEPLWGALELLIFFSVVNVSVGLLGAFAYLLTYMASFNLVYLFTVRIHGALGFLGGVLVALKQTMGDCVVLRVPQVRVSVMPMLLLALLLLLRLATLLQSPALASYGFGLLSSWVYLRFYQRHSRGRGDMADHFAFATFFPEILQPVVGLLANLVHSLLVKVKICQKTVKRYDVGAPSSITISLPGTDPQDAERRRQLALKALNERLKRVEDQSIWPSMDDDEEESGAKVDSPLPSDKAPTPPGKGAAPESSLITFEAAPPTL [TMEM115] | -0.146 | 55.8 °C | – | 0.0464 | -2.84 | -3.54 |
| MWALCSLLRSAAGRTMSQGRTISQAPARRERPRKDPLRHLRTREKRGPSGCSGGPNTVYLQVVAAGSRDSGAALYVFSEFNRYLFNCGEGVQRLMQEHKLKVARLDNIFLTRMHWSNVGGLSGMILTLKETGLPKCVLSGPPQLEKYLEAIKIFSGPLKGIELAVRPHSAPEYEDETMTVYQIPIHSEQRRGKHQPWQSPERPLSRLSPERSSDSESNENEPHLPHGVSQRRGVRDSSLVVAFICKLHLKRGNFLVLKAKEMGLPVGTAAIAPIIAAVKDGKSITHEGREILAEELCTPPDPGAAFVVVECPDESFIQPICENATFQRYQGKADAPVALVVHMAPASVLVDSRYQQWMERFGPDTQHLVLNENCASVHNLRSHKIQTQLNLIHPDIFPLLTSFRCKKEGPTLSVPMVQGECLLKYQLRPRREWQRDAIITCNPEEFIVEALQLPNFQQSVQEYRRSAQDGPAPAEKRSQYPEIIFLGTGSAIPMKIRNVSATLVNISPDTSLLLDCGEGTFGQLCRHYGDQVDRVLGTLAAVFVSHLHADHHTGLPSILLQRERALASLGKPLHPLLVVAPNQLKAWLQQYHNQCQEVLHHISMIPAKCLQEGAEISSPAVERLISSLLRTCDLEEFQTCLVRHCKHAFGCALVHTSGWKVVYSGDTMPCEALVRMGKDATLLIHEATLEDGLEEEAVEKTHSTTSQAISVGMRMNAEFIMLNHFSQRYAKVPLFSPNFSEKVGVAFDHMKVCFGDFPTMPKLIPPLKALFAGDIEEMEERREKRELRQVRAALLSRELAGGLEDGEPQQKRAHTEEPQAKKVRAQ [ELAC2] | 0.0837 | 56.2 °C | 56.8 °C | -0.0127 | -1.66 | -2.38 |
| UBR2 | -0.361 | 49.9 °C | 49.8 °C | -0.184 | 0.798 | 1.58 |
| MAAVQMDPELAKRLFFEGATVVILNMPKGTEFGIDYNSWEVGPKFRGVKMIPPGIHFLHYSSVDKANPKEVGPRMGFFLSLHQRGLTVLRWSTLREEVDLSPAPESEVEAMRANLQELDQFLGPYPYATLKKWISLTNFISEATVEKLQPENRQICAFSDVLPVLSMKHTKDRVGQNLPRCGIECKSYQEGLARLPEMKPRAGTEIRFSELPTQMFPEGATPAEITKHSMDLSYALETVLNKQFPSSPQDVLGELQFAFVCFLLGNVYEAFEHWKRLLNLLCRSEAAMMKHHTLYINLISILYHQLGEIPADFFVDIVSQDNFLTSTLQVFFSSACSIAVDATLRKKAEKFQAHLTKKFRWDFAAEPEDCAPVVVELPEGIEMG [AAR2] | 0.0362 | 50.2 °C | 50.4 °C | -0.266 | 0.316 | 1.07 |
